Laboratory results: US8088387B2, “Method of targeting specific cell populations using cell-binding agent maytansinoid conjugates linked via a non-cleavable linker, said conjugates, and methods of making said conjugates” (Immunogen Inc., priority 2003, dated 2012)

What was measured:
COLO 205 cells = assay: indirect FACS binding assay on COLO 205 cells; design: species or system human; settings: 5×10^3 cells per well, three hour primary incubation on ice
Method: The inventors carried out binding and cytotoxicity studies on the huC242-non-S-containing non-cleavable linker-DM1 conjugate. First, the binding affinities of huC242 antibody, huC242-SMNP-DM3, and huC242-non-S-containing non-cleavable linker-DM1 to COLO 205 cells were compared. 5×10^3 cells per well were used, with a three hour primary incubation on ice. The huC242-non-S-containing non-cleavable linker-DM1 conjugate had about a two-fold higher apparent dissociation constant than free antibody (see FIG. 23).

SKBR3 cells = assay: continuous exposure clonogenic assay, antigen-positive cells; assay type: cell-based, human
Description: (§1) Cell-binding agent maytansinoid conjugates of the invention can be evaluated for their ability to suppress proliferation of various cell lines in vitro. For example, cell lines such as the human colon carcinoma line COLO205, the human melanoma cell line A375, the human myeloid leukemia cell line HL60, the human breast carcinoma line SKBR3, or the human epidermoid carcinoma cell line KB can be used for the assessment of cytotoxicity of these conjugates. Cells to be evaluated can be exposed to the compounds for 24 hours and the surviving fractions of cells measured in direct assays by known methods. (See, e.g. Goldmacher et al., 135 J. Immunol. 3648-3651 (1985), and Goldmacher et al., 102 J. Cell Biol. 1312-1319 (1986).) IC50 values can then be calculated from the results of the assays.
(§2) The in vitro cytotoxicity and specificity of the huC242-SMCC-DM1 conjugate were evaluated using a continuous exposure clonogenic assay.

A375 cells = assay: continuous exposure clonogenic assay, antigen-negative cells; assay type: cell-based, human
Description: as §1, §2

[1] = in vitro clonogenic / indirect cytotoxicity assays, cell line not given; assay type: cell-based; settings: clonogenic (FIG. 6A-C) and indirect cytotoxicity assays (FIG. 7)
Description: as §1

[2] = test system: COLO 205 colon tumor xenografts; assay: COLO 205 colon tumor xenografts in SCID mice; assay type: in vivo
Method: (§3) Antibody conjugates with DM1 using the SMCC linker show anti-tumor efficacy against human tumor xenografts in mice (FIGS. 10A-C). […] In this experiment, one group of five animals bearing established subcutaneous tumors was treated with huC242-SMCC-DM1 at a dose of 150 μg/kg of conjugated DM1. Tumor sizes were measured periodically and graphed vs. time after tumor inoculation. […] In this experiment, three groups of five animals each bearing established subcutaneous SNU tumors were treated with huC242-SMCC-DM1 at doses of 15 μg/kg, 30 μg/kg, and 60 μg/kg of conjugated DM1, respectively. Tumor sizes were measured periodically and graphed vs. time after tumor inoculation.

[3] = test system: SNU16 human gastric tumor xenografts; assay: SNU16 human gastric tumor xenografts in SCID mice; assay type: in vivo
Method: as §3

[4] = plasma clearance of conjugates; assay type: in vivo
Description: This is in sharp contrast to plasma clearance of conjugates prepared with relatively labile disulfide bonds such as huC242-SPP-DM1. […] The non-cleavable SMCC linkage is therefore much more resistant to maytansinoid-linker cleavage activities present in vivo than the SPP-DM1 conjugate. […] This increased exposure could have substantial impact on drug efficacy in some cases.

[5] = acute toxicity test, single intravenous dose; assay type: in vivo, female CD-1 mice; settings: single intravenous dose
Method: Maytansinoid conjugates prepared with non-cleavable linkers such as SMCC show an unexpected increased tolerability in mice compared with conjugates prepared with cleavable disulfide linkers. An acute toxicity test with a single intravenous dose was carried out in female CD-1 mice. A comparison of the tolerability of a huC242-SMCC-DM1 conjugate (non-cleavable) with huC242 conjugates prepared with linkers containing cleavable disulfide bonds was conducted by monitoring the death of mice (FIGS. 12A and B) and signs of toxicity (FIGS. 12C and D) over a series of four escalating doses of each conjugate. The maximum tolerated dose (MTD) for the SMCC-DM1 conjugate was greater than the highest dose tested (150 mg/kg) while the MTD for the disulfide-linked conjugate SPP-DM1 was in the range of 45-90 mg/kg.

COLO205 cells = assay: cell cycle arrest by flow cytometry; assay type: cell-based, human; settings: 30 hours post-treatment
Method: Maytansinoid conjugates are thought to impart their cell destroying activity through the inhibition of microtubule polymerization. This inhibition of microtubule polymerization leads to an arrest of the cell cycle principally at G2/M. The antigen-dependent arrest of cells at G2/M by antibody-maytansinoid conjugates can be monitored by flow cytometry analysis (FIG. 13). Treatment of COLO205 cells with huC242-SPP-DM1 or huC242-SMCC-DM1 conjugate results in a complete G2/M arrest by 6-10 hours. […] The difference in the durability of the activity of these two conjugates is also reflected in percentage of dead cells at the 30 hour time point, as judged by a dye exclusion assay using trypan blue.

COLO 205 cell line = assay: cell destroying activity, antigen-positive cells (bystander study); assay type: cell-based, human; settings: COLO 205 cultured separately
Description: (§4) An additional aspect of conjugates prepared with non-cleavable linkers compared to conjugates that have cleavable disulfide linkers is the absence of activity toward antigen-negative cells when in close proximity to antigen-positive cells, termed here the bystander effect. That is, the conjugates prepared with non-cleavable linkers have minimal bystander activity. […] This minimal bystander activity of the non-cleavable conjugate, as measured in this in vitro assay, may contribute to the increased tolerability of conjugate with non-cleavable linkers observed in acute toxicity studies.

Namalwa cells = assay: cell destroying activity, antigen-negative cells (bystander study); assay type: cell-based
Description: as §4

[6] = Pharmacokinetic Studies of huC242-SPP-DM1 and huC242-SCC-DM1 conjugates inCD-1 Mice Plasma clearance curves and Pharmacokinetic parameters
Description: Table printed on a drawing sheet, FIG. 11
Title: Pharmacokinetic Studies of huC242-SPP-DM1 and huC242-SCC-DM1 conjugates inCD-1 Mice Plasma clearance curves and Pharmacokinetic parameters
First reader's note: Rows without -DM1 (huC242-SMCC, huC242-SPP) appear to be the antibody component of the same conjugates, as in the plot legend; study in CD-1 mice.

[7] = 150 μg/kg of conjugated DM1, of five animals

B1: huC242-SMCC-DM1: huC242 antibody linked to maytansinoid DM1 via the non-cleavable linker SMCC (conjugate, chains of the INN, looked up)
VH: QVQLVQSGAEVKKPGETVKISCKASDYTFTYYGMNWVKQAPGQGLKWMGWIDTTTGEPTYAQKFQGRIAFSLETSASTAYLQIKSLKSEDTATYFCARRGPYNWYFDVWGQGTTVTVSS
VL: DIVMTQSPLSVPVTPGEPVSISCRSSKSLLHSNGNTYLYWFLQRPGQSPQLLIYRMSNLVSGVPDRFSGSGSGTAFTLRISRVEAEDVGVYYCLQHLEYPFTFGPGTKLELK
modifications: DM1 via SMCC linker
COLO 205 cells
  Kd: 0.552 nM
SKBR3 cells
  IC50: 3.5 pM
A375 cells; antigen negative A375 vs antigen positive SKBR3
  fold less sensitive than SKBR3 cells: about 800 fold
A375 cells; antigen-negative A375 cells, continuous exposure clonogenic assay
  IC50: > 3 nM
[1]
  potency compared to conjugates prepared with disulfide-containing linkers: equal or greater potency
[2]; 150 μg/kg of conjugated DM1, five animals, established subcutaneous tumors
  tumor response: All five treated animals had a complete remission
[2]; [7]
  animals that relapsed after complete remission: three
  animals tumor-free until termination of the experiment: two
[2]; at conjugate doses with anti-tumor activity
  effect on mouse body weight: no effect on mouse body weight
[2]; sentence citing FIG. 10B, text prints COLO 205
  time some mice remained free of detectable tumors post-treatment: over 2 months
[2]; text prints COLO 205 colon carcinoma xenografts
  tumor response (sentence citing FIG. 10B): complete regression of tumors
[3]; 15, 30 and 60 μg/kg of conjugated DM1, established subcutaneous SNU tumors
  antitumor effect: dose-dependent antitumor effect
[3]; at active conjugate concentration
  effect on mouse body weight: no effect on mouse body weight
[4]; area under the curve
  increase in overall maytansinoid exposure (AUC) compared to SPP-DM1 conjugates: ~5 fold
[4]; plasma, conjugate, FIG. 11
  half-life for clearance: approximately 320 hours
[5]; at 150 mg/kg
  survival / lethal toxicity: all mice in the SMCC-DM1 treated group survived
[5]; female CD-1 mice
  maximum tolerated dose (MTD): > 150 mg/kg
COLO205 cells
  durability of cell cycle arrest: do not escape from the cell cycle block
COLO 205 cell line
  cell destroying activity: potent cell destroying activity
Namalwa cells; Namalwa cultured separately
  cell destroying activity: no activity
Namalwa cells; co-cultures of COLO 205 and Namalwa cells
  bystander cell destroying activity toward Namalwa cells: No cell destroying activity
[6]
  AUC |: 40374.2 µg·h/mL
  CL |: 0.3 mL/h/kg
  Vss |: 112.5 mL/kg
  t1/2 | hour: 13.26 days
